Laboratory results published in the RNAGym collection of RNA variant scans (doi:10.1093/nar/gkz1192).

B1: CPEB3 Ribozyme (parent)
chain: UAACAGGGGGCCACAGCAGAAGCGUUCACGUCGCAGCCCCUGUCAGAUUCUGGUGAAUCUGCGAAUUCUGCUGUAUAUCUC

Variants of: B1
Assay: self-cleavage, relative activity (ratio to wild type); higher = more cleavage; in vitro, sequencing
Summary of the method: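 Relative activity was defined as the cleaved/total read fraction for a variant divided by the same fraction for the unmutated ribozyme. CPEB3 self-cleaving ribozyme libraries were made by rounds of error-prone PCR, barcoded, and transcribed in vitro with T7 RNA polymerase for 5 hours at 37°C, and cleavage ran through transcription plus a 15 min DNase I step before EDTA. Illumina sequencing of template-switched reverse transcripts gave the reads, and DNA sequencing mapped the barcodes. Averages come from three batches, using variants with at least 5 reads.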

Variant | self-cleavage
UAACAGGGGGCCACAGCAGAAGUGUUCACGUCGCAGCCCCUGGCAGAUUCUGGUGAAUCUGCGAAUUCUGCUGUAUAUCUC [C23U U43G] | 0.11
UAACAGGGGGCCACAGCAGAAGUGUUCACGUCGCAGCCCCUGCCAGAUUCUGGUGAAUCUGCGAAUUCUGCUGUAUAUCUC [C23U U43C] | 0.3
UAACAGGGGGCCACAGCAGAAGUGUUCACGUCGCAGCCCCUGACAGAUUCUGGUGAAUCUGCGAAUUCUGCUGUAUAUCUC [C23U U43A] | 0.34
UAACAGGGGGCCACAGCAGAAGUGUUCACGUCGCAGCCCCUGUCAGAUUCUGGUGUAUCUGCGAAUUCUGCUGUAUAUCUC [C23U A56U] | 0.15
UAACAGGGGGCCACAGCAGAAGUGUUCACGUCGCAGCCCCUGUCAGAUUCUGGUGGAUCUGCGAAUUCUGCUGUAUAUCUC [C23U A56G] | 0.31
UAACAGGGGGCCACAGCAGAAGUGUUCAUGUCGCAGCCCCUGUCAGAUUCUGGUGAAUCUGCGAAUUCUGCUGUAUAUCUC [C23U C29U] | 0.21
UAACAGGGGGCCACAGCAGAAGUGUUCACGUCGCUGCCCCUGUCAGAUUCUGGUGAAUCUGCGAAUUCUGCUGUAUAUCUC [C23U A35U] | 0.16
UAACAGGGGGCCACAGCAGAAGUGUUCACGUCGCGGCCCCUGUCAGAUUCUGGUGAAUCUGCGAAUUCUGCUGUAUAUCUC [C23U A35G] | 0.95
UAACAGGGGGCCACAGCAGAAGUGCUCACGUCGCAGCCCCUGUCAGAUUCUGGUGAAUCUGCGAAUUCUGCUGUAUAUCUC [C23U U25C] | 0.19
UAACAGGGGGCCACAGCAGAAGUGAUCACGUCGCAGCCCCUGUCAGAUUCUGGUGAAUCUGCGAAUUCUGCUGUAUAUCUC [C23U U25A] | 0.14
UAACAGGGGGCCACAGCAGAAGUGUUCACGUCGCAGCCCCUGUCAGACUCUGGUGAAUCUGCGAAUUCUGCUGUAUAUCUC [C23U U48C] | 0.14
UAACAGGGGGCCACAGCAGAAGUGUUCACGUCGCAGUCCCUGUCAGAUUCUGGUGAAUCUGCGAAUUCUGCUGUAUAUCUC [C23U C37U] | 0.2
UAACAGGGGGCCACAGCAGAAGUGUUCACGUCGCAGCCCCUGUCAGUUUCUGGUGAAUCUGCGAAUUCUGCUGUAUAUCUC [C23U A47U] | 0.2
UAACAGGGGGCCACAGCAGAAGUGUUCACGUCGCAGCCCCUGUCAGGUUCUGGUGAAUCUGCGAAUUCUGCUGUAUAUCUC [C23U A47G] | 0.18
UAACAGGGGGCCACAGCAGAAGUGUUUACGUCGCAGCCCCUGUCAGAUUCUGGUGAAUCUGCGAAUUCUGCUGUAUAUCUC [C23U C27U] | 0.31
UAACAGGGGGCCACAGCAGAAGUGUUCACGUUGCAGCCCCUGUCAGAUUCUGGUGAAUCUGCGAAUUCUGCUGUAUAUCUC [C23U C32U] | 0.14
UAACAGGGGGCCACAGCAGAAGUGUUCACGUCGCAGCCCCUGUCAGAUUCUGGUAAAUCUGCGAAUUCUGCUGUAUAUCUC [C23U G55A] | 0.24
UAACAGGGGGCCACAGCAGAAGUGUUCACGUCGCAGCCCCUGUCAGAUUCUGGUGAAUCUGCGAAUUCUGCUGUAUAUCUC [C23U] | 0.35
UAACAGGGGGCCACAGCAGAAGUGUUCACGUCGCAGCCCCUGUCGGAUUCUGGUGAAUCUGCGAAUUCUGCUGUAUAUCUC [C23U A45G] | 0.25
UAACAGGGGGCCACAGCAGAAGUGUUCACGUCGCAGCCCCUGUCUGAUUCUGGUGAAUCUGCGAAUUCUGCUGUAUAUCUC [C23U A45U] | 0.27
UAACAGGGGGCCACAGCAGAAGUGUUCACGUCGCAGCCCCUGUCCGAUUCUGGUGAAUCUGCGAAUUCUGCUGUAUAUCUC [C23U A45C] | 0.45
UAACAGGGGGCCACAGCAGAAGUGUUCACAUCGCAGCCCCUGUCAGAUUCUGGUGAAUCUGCGAAUUCUGCUGUAUAUCUC [C23U G30A] | 0.12
UAACAGGGGGCCACAGCAGAAGUGUUCACGUCGCAGCCCCUGUCAGAUUCUGGUGAAUCAGCGAAUUCUGCUGUAUAUCUC [C23U U60A] | 0.26

Variant | self-cleavage
UAACAGGGGGCCACAGCAGAAGUGUUCACGUCGCAGCCCCUGUCAGAUUCUGGUGAAUCCGCGAAUUCUGCUGUAUAUCUC [C23U U60C] | 0.15
UAACAGGGGGCCACAGCAGAAGUGUUCACGUCGCAGCACCUGUCAGAUUCUGGUGAAUCUGCGAAUUCUGCUGUAUAUCUC [C23U C38A] | 0.16
UAACAGGGGGCCACAGCAGAAGUGUUCACGUCGCAGCUCCUGUCAGAUUCUGGUGAAUCUGCGAAUUCUGCUGUAUAUCUC [C23U C38U] | 0.13
UAACAGGGGGCCACAGCAGAAGUGUUCACGUCGCAGCCCCUGUCAGAUUCUGGGGAAUCUGCGAAUUCUGCUGUAUAUCUC [C23U U54G] | 0.31
UAACAGGGGGCCACAGCAGAAGUGUUCACGUCGCAGCCCCUGUCAGAUUCUGGAGAAUCUGCGAAUUCUGCUGUAUAUCUC [C23U U54A] | 0.31
UAACAGGGGGCCACAGCAGAAGUGUUCACGUCGCAGCCCCUGUCAGAUUCUGGCGAAUCUGCGAAUUCUGCUGUAUAUCUC [C23U U54C] | 0.16
UAACAGGGGGCCACAGCAGAAGUAUUCACGUCGCAGCCCCUGUCAGAUUCUGGUGAAUCUGCGAAUUCUGCUGUAUAUCUC [C23U G24A] | 0.22
UAACAGGGGGCCACAGCAGAAGUGUUCACGUCGCAGCCCCUGUAAGAUUCUGGUGAAUCUGCGAAUUCUGCUGUAUAUCUC [C23U C44A] | 0.38
UAACAGGGGGCCACAGCAGAAGUGUUCACGUCGCAGCCCCUGUCAGAUUCUAGUGAAUCUGCGAAUUCUGCUGUAUAUCUC [C23U G52A] | 0.57
UAACAGGGGGCCACAGCAGAAGUGUUCACGUCGCAGCCCCUGUCAGAUUCUGGUGAAUCUCCGAAUUCUGCUGUAUAUCUC [C23U G61C] | 0.11
UAACAGGGGGCCACAGCAGAAGUGUUCACGUCGCAGCCCCUGUCAGAUUCUGGUGAAUCUACGAAUUCUGCUGUAUAUCUC [C23U G61A] | 0.25
UAACAGGGGGCCACAGCAGAAGUGUUCACGUCGCAGCCCCUGUCAGAUUCAGGUGAAUCUGCGAAUUCUGCUGUAUAUCUC [C23U U51A] | 0.2
UAACAGGGGGCCACAGCAGAAGUGUUCACGUCGCAGCCCCUGUCAGAUUCCGGUGAAUCUGCGAAUUCUGCUGUAUAUCUC [C23U U51C] | 0.07
UAACAGGGGGCCACAGCAGAAGUGUUCACGUCGCAGCCCCUGUCAGAUUCUGGUGAAUCUGCGAACUCUGCUGUAUAUCUC [C23U U66C] | 0.15
UAACAGGGGGCCACAGCAGAAGUGUCCACGUCGCAGCCCCUGUCAGAUUCUGGUGAAUCUGCGAAUUCUGCUGUAUAUCUC [C23U U26C] | 0.2
UAACAGGGGGCCACAGCAGAAGUGUACACGUCGCAGCCCCUGUCAGAUUCUGGUGAAUCUGCGAAUUCUGCUGUAUAUCUC [C23U U26A] | 0.24
UAACAGGGGGCCACAGCAGAAGUGUUCACGUCGUAGCCCCUGUCAGAUUCUGGUGAAUCUGCGAAUUCUGCUGUAUAUCUC [C23U C34U] | 0.36
UAACAGGGGGCCACAGCAGAAGUGUUCACGUCGCAGCCACUGUCAGAUUCUGGUGAAUCUGCGAAUUCUGCUGUAUAUCUC [C23U C39A] | 0.19
UAACAGGGGGCCACAGCAGAAGUGUUCACGUCGCAGCCUCUGUCAGAUUCUGGUGAAUCUGCGAAUUCUGCUGUAUAUCUC [C23U C39U] | 0.24
UAACAGGGGGCCACAGCAGAAGUGUUCCCGUCGCAGCCCCUGUCAGAUUCUGGUGAAUCUGCGAAUUCUGCUGUAUAUCUC [C23U A28C] | 0.43
UAACAGGGGGCCACAGCAGAAGUGUUCGCGUCGCAGCCCCUGUCAGAUUCUGGUGAAUCUGCGAAUUCUGCUGUAUAUCUC [C23U A28G] | 0.26
UAACAGGGGGCCACAGCAGAAGUGUUCUCGUCGCAGCCCCUGUCAGAUUCUGGUGAAUCUGCGAAUUCUGCUGUAUAUCUC [C23U A28U] | 0.23
UAACAGGGGGCCACAGCAGAAGUGUUCACGUCGCAGCCCCAGUCAGAUUCUGGUGAAUCUGCGAAUUCUGCUGUAUAUCUC [C23U U41A] | 0.12

Variant | self-cleavage
UAACAGGGGGCCACAGCAGAAGUGUUCACGUCGCAGCCCCCGUCAGAUUCUGGUGAAUCUGCGAAUUCUGCUGUAUAUCUC [C23U U41C] | 0.27
UAACAGGGGGCCACAGCAGAAGUGUUCACGUCGCAGCCCCUGUCAGAUGCUGGUGAAUCUGCGAAUUCUGCUGUAUAUCUC [C23U U49G] | 0.41
UAACAGGGGGCCACAGCAGAAGUGUUCACGUCGCAGCCCCUGUCAGAUCCUGGUGAAUCUGCGAAUUCUGCUGUAUAUCUC [C23U U49C] | 0.28
UAACAGGGGGCCACAGCAGAAGUGUUCACGUCGCAGCCCCUGUCAGAUUCUGGUGAAUCUGCGAAUACUGCUGUAUAUCUC [C23U U67A] | 0.16
UAACAGGGGGCCACAGCAGAAGUGUUCACGUCGCAGCCCCUGUCAGAUUCUGGUGAAUCUGCGAAUGCUGCUGUAUAUCUC [C23U U67G] | 0.38
UAACAGGGGGCCACAGCAGAAGUGUUCACGUCGCAGCCCCUGUCAGAUUCUGGUGAAUCUGCGAAUCCUGCUGUAUAUCUC [C23U U67C] | 0.28
UAACAGGGGGCCACAGCAGAAGUGUUCACGUCGCAGCCCCUGUCAGAUUCUGGUGAAUCUGCGAAUUCUGCUGUGUAUCUC [C23U A75G] | 0.27
UAACAGGGGGCCACAGCAGAAGUGUUCACGUCGCAGCCCCUGUCAGAUUCUGGUGAAUCUGCGAAUUCUACUGUAUAUCUC [C23U G70A] | 0.17
UAACAGGGGGCCACAGCAGAAGUGUUCACGUCGCAGCCCCUGUCAGAUUCUGGUGAAUCUGCGAAUUCUGCUGUAUGUCUC [C23U A77G] | 0.34
UAACAGGGGGCCACAGCAGAAGUGUUCACGUCGCAGCCCCUGUCAGAUUCUGGUGAAUCUGCGAAUUCUGCUGUAUUUCUC [C23U A77U] | 0.23
UAACAGGGGGCCACAGCAGAAGUGUUCACGCCGCAGCCCCUGUCAGAUUCUGGUGAAUCUGCGAAUUCUGCUGUAUAUCUC [C23U U31C] | 0.22
UAACAGGGGGCCACAGCAGAAGUGUUCACGACGCAGCCCCUGUCAGAUUCUGGUGAAUCUGCGAAUUCUGCUGUAUAUCUC [C23U U31A] | 0.23
UAACAGGGGGCCACAGCAGAAGUGUUCACGUCGCAGCCCCUGUCAAAUUCUGGUGAAUCUGCGAAUUCUGCUGUAUAUCUC [C23U G46A] | 0.06
UAACAGGGGGCCACAGCAGAAGUGUUCACGUCGCAGCCCCUGUCAGAUUCUGGUGAAUCUGCGGAUUCUGCUGUAUAUCUC [C23U A64G] | 0.26
UAACAGGGGGCCACAGCAGAAGUGUUCACGUCGCAGCCCCUGUCAGAUUCUGGUGAAUCUGCGCAUUCUGCUGUAUAUCUC [C23U A64C] | 0.09
UAACAGGGGGCCACAGCAGAAGUGUUCACGUCGCAGCCCCUGUCAGAUUCUGGUGAAUCUGCGUAUUCUGCUGUAUAUCUC [C23U A64U] | 0.16
UAACAGGGGGCCACAGCAGAAGUGUUCACGUCGCAGCCCCUGUCAGAUUCUGGUGAAUCUGGGAAUUCUGCUGUAUAUCUC [C23U C62G] | 0.09
UAACAGGGGGCCACAGCAGAAGUGUUCACGUCGCAGCCCCUGUCAGAUUCUGGUGAAUCUGCGAGUUCUGCUGUAUAUCUC [C23U A65G] | 0.43
UAACAGGGGGCCACAGCAGAAGGGUUCACGUCGCAGCCCCUGUCAGAUUCUGGUGAAUCUGCGAAUUCUGCUGUAUAUCCC [C23G U80C] | 0.13
UAACAGGGGGCCACAGCAGAAGUGUUCACGUCGCAGCCCCUGUCAGAUUCUGGUGAAACUGCGAAUUCUGCUGUAUAUCUC [C23U U58A] | 0.34
UAACAGGGGGCCACAGCAGAAGUGUUCACGUCGCAGCCCCUGUCAGAUUCUGGUGAGUCUGCGAAUUCUGCUGUAUAUCUC [C23U A57G] | 0.31
UAACAGGGGGCCACAGCAGAAGUGUUCACGUCGCAGCCCCUGUCAGAUUCUGGUGAUUCUGCGAAUUCUGCUGUAUAUCUC [C23U A57U] | 0.19
